Paper PMC6677536 (2019)

Sequence of Full-length Nxf2, 3xFLAG-tagged (from UniProt Q9VV73) aa835-836 (UBA mut.2) (Q9VV73 whole entry, change not shown, the tested form may be a part): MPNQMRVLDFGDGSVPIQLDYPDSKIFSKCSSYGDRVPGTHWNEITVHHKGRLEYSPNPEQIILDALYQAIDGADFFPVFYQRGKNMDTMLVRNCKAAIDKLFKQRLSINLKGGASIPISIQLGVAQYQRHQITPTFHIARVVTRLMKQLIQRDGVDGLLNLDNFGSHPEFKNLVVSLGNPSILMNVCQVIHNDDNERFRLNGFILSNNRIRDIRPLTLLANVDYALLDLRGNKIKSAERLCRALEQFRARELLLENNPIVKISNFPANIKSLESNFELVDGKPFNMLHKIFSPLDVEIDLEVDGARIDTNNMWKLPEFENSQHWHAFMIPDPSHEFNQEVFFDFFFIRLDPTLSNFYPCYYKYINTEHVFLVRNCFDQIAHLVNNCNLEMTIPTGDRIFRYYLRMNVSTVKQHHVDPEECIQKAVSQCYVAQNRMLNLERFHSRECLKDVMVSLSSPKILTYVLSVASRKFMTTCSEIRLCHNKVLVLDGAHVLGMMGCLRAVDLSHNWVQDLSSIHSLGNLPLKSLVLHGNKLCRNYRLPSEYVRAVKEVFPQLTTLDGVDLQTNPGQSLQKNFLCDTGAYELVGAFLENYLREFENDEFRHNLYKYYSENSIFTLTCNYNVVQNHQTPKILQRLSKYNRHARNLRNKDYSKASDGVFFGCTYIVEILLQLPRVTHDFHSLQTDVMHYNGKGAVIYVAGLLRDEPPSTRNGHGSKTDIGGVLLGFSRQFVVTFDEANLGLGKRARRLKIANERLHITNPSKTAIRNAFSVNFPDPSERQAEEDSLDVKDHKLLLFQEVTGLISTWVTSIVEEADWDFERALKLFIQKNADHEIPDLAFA
Sequence of Full-length Nxf2, 3xFLAG-tagged (from UniProt Q9VV73) aa754-756 (NTF2 mut.2) (Q9VV73 whole entry, change not shown, the tested form may be a part): as above
Sequence of Full-length Nxf2, 3xFLAG-tagged (from UniProt Q9VV73) aa811-814 (UBA mut.1) (Q9VV73 whole entry, change not shown, the tested form may be a part): as above
Sequence of Full-length Nxf2, 3xFLAG-tagged (from UniProt Q9VV73) aa751-754 (NTF2 mut.1) (Q9VV73 whole entry, change not shown, the tested form may be a part): as above
Sequence of Full-length Nxf2, 3xFLAG-tagged (from UniProt Q9VV73) aa755-758 (NTF2 mut.3) (Q9VV73 whole entry, change not shown, the tested form may be a part): as above

Each substance was assayed against Full-length Panx, HA-tagged (UniProt Q9W2H9) (assay: FLAG-tag co-immunoprecipitation, western blot quantification). Details: lysates of transfected S2 cells; parent: est. 0; read off a plot.
Sequence of Full-length Panx, HA-tagged (Q9W2H9 whole entry, the tested form may be a part): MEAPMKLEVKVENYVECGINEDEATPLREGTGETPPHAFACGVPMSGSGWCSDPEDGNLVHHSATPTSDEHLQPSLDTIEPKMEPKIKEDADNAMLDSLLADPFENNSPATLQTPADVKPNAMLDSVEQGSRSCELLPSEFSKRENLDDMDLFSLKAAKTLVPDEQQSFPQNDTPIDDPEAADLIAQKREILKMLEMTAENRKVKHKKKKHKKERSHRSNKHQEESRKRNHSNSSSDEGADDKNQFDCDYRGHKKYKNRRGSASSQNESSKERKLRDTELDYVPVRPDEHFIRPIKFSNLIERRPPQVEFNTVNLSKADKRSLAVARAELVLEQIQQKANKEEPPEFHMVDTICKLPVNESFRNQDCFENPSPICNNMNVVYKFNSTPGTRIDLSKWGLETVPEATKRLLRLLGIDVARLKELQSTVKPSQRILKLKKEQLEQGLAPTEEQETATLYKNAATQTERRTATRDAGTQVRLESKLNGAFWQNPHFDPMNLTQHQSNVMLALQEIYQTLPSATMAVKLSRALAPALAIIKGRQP
For “Full-length Nxf2, 3xFLAG-tagged (from UniProt Q9VV73) aa755-758 (NTF2 mut.3)”, the log10 ratio (log10 coIP index [arbitrary unit]) was -0.3.
Substance “Full-length Nxf2, 3xFLAG-tagged (from UniProt Q9VV73) aa754-756 (NTF2 mut.2)” has a log10 ratio (log10 coIP index [arbitrary unit]) of -0.32.
“Full-length Nxf2, 3xFLAG-tagged (from UniProt Q9VV73) aa751-754 (NTF2 mut.1)” showed a log10 ratio (log10 coIP index [arbitrary unit]) of -0.55.
Work on “Full-length Nxf2, 3xFLAG-tagged (from UniProt Q9VV73) aa835-836 (UBA mut.2)” yielded a log10 ratio (log10 coIP index [arbitrary unit]) of -0.5.
“Full-length Nxf2, 3xFLAG-tagged (from UniProt Q9VV73) aa811-814 (UBA mut.1)” gave a log10 ratio (log10 coIP index [arbitrary unit]) of -1.3.
